Measured values as given in the nanobody polyreactivity screen of Harvey et al. (2022).

Experiment: yeast display, Sf9 membrane polyspecificity reagent, FACS + sequencing; frameworks hold sequencing errors
Outline: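 A synthetic nanobody library was expressed on Saccharomyces cerevisiae BJ5465 by galactose induction for 36–48 hours. The library was stained for 1 hour at 4 °C with 10% biotinylated, detergent-solubilized Sf9 membrane reagent and enriched with streptavidin microbeads before FACS. Low and high (top ~1%) gates were set on anti-HA fluorescence for expression and streptavidin fluorescence for reagent binding, and each polyreactivity label reflects the gate of origin.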
For “QVQLVESGGGLVQAGGSLRLSCAASGFIFRYYAMGWYRQAPGKERELFAAISWSGGTTYYADSVKGRFTISRDNAKNTVYLQMNSLKPEDTAVYYCNAGYNGKRRDPVDYWGQGTQVTVSS”, the “polyreactivity (PSR sort gate)” value was “low polyreactivity”.
In the case of “QVQLVESGGGLVQAGGSLRLSCAASGFIFRYYAMGWYRQAPGKERELVAAISGSGGGTYYADSVKGRFTISRDNAKNTVYLQMNSLIPEDTAVYYCAATWTQPQPGYYPYYYWGQGTQVTVSS”, the “polyreactivity (PSR sort gate)” value is reported as “high polyreactivity”.
In the case of “QVQLVESGGGLVQAGGSLRLSCAASGFIFRYYAMGWYRQAPGKERELVAAISGSGGGTYYADSVKGRFTISRDNAKNTVYLQMNSLKPEDTAVYYCAAGSTSGYFRYYYWGQGTQVTVSS”, the “polyreactivity (PSR sort gate)” value is reported as “high polyreactivity”.
With “QVQLVESGGGLVQAGGSLRLSCAASGFIFRYYAMGWYRQAPGKERELVAAISKRGGGTYYADSVKGRFTISRDNAKNTVYLQMNSLKPEDTAVYYCNKDGGYGTGSSREYDSWGQGTQVTVSS” the “polyreactivity (PSR sort gate)” value was “high polyreactivity”.
With “QVQLVESGGGLVQAGGSLRLSCAASGFIFRYYAMGWYRQAPGKERELVAAISRSGGSTYYADSVKGRFTISRDNAKNTVYLQMNSLKPEDTAVYYCAALQSRSWYQFNYWGQGTQVTVSS” the “polyreactivity (PSR sort gate)” value was “high polyreactivity”.
With “QVQLVESGGGLVQAGGSLRLSCAASGFIFRYYAMGWYRQAPGKERELVAGITRTGGRTYYADSVKGRFTISRDNAKNTVYLQMNSLKPEDTAVYYCAADQYSRWRTKEAFSEYGFDYWGQGTQVTVSS” the “polyreactivity (PSR sort gate)” value was “high polyreactivity”.
With “QVQLVESGGGLVQAGGSLRLSCAASGFIFRYYAMGWYRQAPGKERELVASISYSGGTTYYADSVKGRFTISRDNAKNTVYLQMNSLKPEDTAVYYCNVYSRTHYQTYTDDYWGQGTQVTVSS” the “polyreactivity (PSR sort gate)” value was “high polyreactivity”.
With “QVQLVESGGGLVQAGGSLRLSCAASGFIFRYYAMGWYTQAPGKERELVAAISYSGGSTYYADSVKGRFTITRDNAKNTVYLQMNSLKPEDTAVYYCAAVTVKSNQYLYYVYPYGMGYWGQGTQVTVSS” the “polyreactivity (PSR sort gate)” value was “high polyreactivity”.
For “QVQLVESGGGLVQAGGSLRLSCAASGFIFRYYTMGWYRQAPGKERELVASISRRGGSTYYADSVKGRFTISRDNAKNIVYVQMNSLKEVDTAVYYCNADRRLGDGYWGQGTQVTVSS”, the “polyreactivity (PSR sort gate)” value was “high polyreactivity”.
With “QVQLVESGGGLVQAGGSLRLSCAASGFIFRYYTMGWYRQAPGKERELVATITSGGSTYYADSVKGRFTISRDNAKNTVYLQMNSLKPEDTAVYYCAKVRDVLWRFNYWGQGTQVTVSS” the “polyreactivity (PSR sort gate)” value was “high polyreactivity”.
In the case of “QVQLVESGGGLVQAGGSLRLSCAASGFIFRYYTMGWYRQAPGKERELVAVITSGGTTYYADSVKGRFTISRDNAKNTVYLQMNSLKPEDTAGAADQWTIHRWATYGYWGQGTQVTVSS”, the “polyreactivity (PSR sort gate)” value is reported as “low polyreactivity”.
In the case of “QVQLVESGGGLVQAGGSLRLSCAASGFIFRYYTMGWYRQAPGKERELVAVITSGGTTYYADSVKGRFTISRDNAKNTVYLQMNSLKPEDTAVYYCAADTFYIYEDVLYVQGDYYWGQGTQVTVSS”, the “polyreactivity (PSR sort gate)” value is reported as “low polyreactivity”.
With “QVQLVESGGGLVQAGGSLRLSCAASGFIFSFYAMGWYRQAPGKERELVAAITSSGATTYYADSVKGRFTISRDNAKNTVYLQMNSLKPEDTAVYYCNAVYRRDTGYYRYYYWGQGTQVTVSS” the “polyreactivity (PSR sort gate)” value was “high polyreactivity”.
For “QVQLVESGGGLVQAGGSLRLSCAASGFIFSGNAMGWYRQAPGKARELVAAISWSGTSTFYADSVKGRFTISRDNAKNTVYLQMHSLIPEDTAVYYCAAETYYSYWYRPHYDYWGQGTQVTVSS”, the “polyreactivity (PSR sort gate)” value was “low polyreactivity”.
In the case of “QVQLVESGGGLVQAGGSLRLSCAASGFIFSGNAMGWYRQAPGKERELVAAITWSDGSTYYADSVKGRFTISRDNAKNTVYFQINSLKPEDSAVYYCAVGALQITRYDSWGQGTQVTVSS”, the “polyreactivity (PSR sort gate)” value is reported as “low polyreactivity”.
In the case of “QVQLVESGGGLVQAGGSLRLSCAASGFIFSGYAMGWYRQAPGKERELVATISGSGGSTYYADSVKGRFTISRDNAKNTVYLQMNSLKPEDTAVYYCNALYASSVRHKVTYDYWGQGTQVTVSS”, the “polyreactivity (PSR sort gate)” value is reported as “high polyreactivity”.
In the case of “QVQLVESGGGLVQAGGSLRLSCAASGFIFSHYAMGWYRQAPGKERELVAAISWSGDSTYYADSVKGRFTLSRDNAKNTVDLQMNSLKPEDTAVYYCNAVYFWVRYLKFLEFGYWGQGTQVTVSS”, the “polyreactivity (PSR sort gate)” value is reported as “high polyreactivity”.
In the case of “QVQLVESGGGLVQAGGSLRLSCAASGFIFSKYAMGWYRQAPGKERELVAAITGGGSTNYADSVKGRFTISRDNAKNTVYLQMTSLKPEDTAVYYCAARGFTLTDYDRDLYYWGQGTQVTVSS”, the “polyreactivity (PSR sort gate)” value is reported as “low polyreactivity”.
With “QVQLVESGGGLVQAGGSLRLSCAASGFIFSLYAMGWYRQAPGKERELVAAINWNGGRTYYADSVKGRFTISRDNAKNTVYLQMNSLKPEDTAVYYCAKLGYLGLDYWGQGTQVTVSS” the “polyreactivity (PSR sort gate)” value was “high polyreactivity”.
With “QVQLVESGGGLVQAGGSLRLSCAASGFIFSLYAMGWYRQAPGKERELVAAISKRGGSTNYADSVKGRFTISRDNAKNTVFLQMNSLKPEDTAVYYCAKARPGFLYDHWGQGTEVTVSS” the “polyreactivity (PSR sort gate)” value was “high polyreactivity”.
With “QVQLVESGGGLVQAGGSLRLSCAASGFIFSQYAMGWYRQAPGTERELVAVISKSSGSTYYADSVKGRFTISCDNAKNTVYLQMNSLKPEDTAVYYCNRRYYYRTYDYWGQGTQVTVSS” the “polyreactivity (PSR sort gate)” value was “high polyreactivity”.
In the case of “QVQLVESGGGLVQAGGSLRLSCAASGFIFSRNAMGWYRQAPGKERELVAAISLRGGSTYYADSVKGRFTISRDNAKNTVYLQMNSLKPEDTAVYYCAADSVLTPYDYWVQGTQVTVSS”, the “polyreactivity (PSR sort gate)” value is reported as “low polyreactivity”.
In the case of “QVQLVESGGGLVQAGGSLRLSCAASGFIFSRNAMGWYRQAPGKERELVAAISSTGGITYYADSVKGRFTISRDNAKITVYLQMNSLKPEDTAVYYCAAGFYGYARHSWYKYWGQGTQVTVSS”, the “polyreactivity (PSR sort gate)” value is reported as “high polyreactivity”.
For “QVQLVESGGGLVQAGGSLRLSCAASGFIFSSNAMGWYRQAPGKERELVAAITSSGGGTYYADSVKGRFTISRDNAKNTVYLQMNSLKPEDTAVYYCNAAYKYAIPSYGYWGQGTQVTVSS”, the “polyreactivity (PSR sort gate)” value was “low polyreactivity”.
With “QVQLVESGGGLVQAGGSLRLSCAASGFIFSSYAMGWYRQAPGKEMELVAAISWSGGRTYYADPVKGRFTISRDNAKNTVYLQLNSLKPEDTAVYYCNARYPYPYWYTSYDYWGQGTQVTVSS” the “polyreactivity (PSR sort gate)” value was “high polyreactivity”.
In the case of “QVQLVESGGGLVQAGGSLRLSCAASGFIFSSYAMGWYRQAPGKERELVARISLSGGSTFYADSVKGRFTISRDNAKNTVYLQMNSLKPEDTAVYYCAARDFSTHFSPMDYWGQGPQVTVSS”, the “polyreactivity (PSR sort gate)” value is reported as “low polyreactivity”.
For “QVQLVESGGGLVQAGGSLRLSCAASGFIFSTNFMGWYRQAPGKERELVADINTGGSTSYADSVKGRFTISRDNAKNTVYLQMNSLKPEDTAVYYCAAVLQYYYLSTDDPYDYWGQGTQVTVSS”, the “polyreactivity (PSR sort gate)” value was “low polyreactivity”.
With “QVQLVESGGGLVQAGGSLRLSCAASGFIFSTYAMGWYRQAPGKERELVAAISWSGGRTNYADSVKGRFTISRDNAKNTVYLQMNSLKPEDTAVYYCAVGGERGARIGSNHRGSRYDYWGQGTQVTVSS” the “polyreactivity (PSR sort gate)” value was “high polyreactivity”.
In the case of “QVQLVESGGGLVQAGGSLRLSCAASGFIFSVYAMGWYRQAPGKERELVAVISTSGGRTYYADSVKGRFTISRDNAKNTVYLQMNSLKPEDTAVYYCAADGFQYTLGNYYWGQGTQVTVSS”, the “polyreactivity (PSR sort gate)” value is reported as “high polyreactivity”.
For “QVQLVESGGGLVQAGGSLRLSCAASGFIFSWYAMGWYRQAPGKERELVAAIDQSGDSTYYADSVKGRFTISRDNAKNTVYLQMNSLKPEDTAVYYCAAQSYDYWYDYDYWGQGTQVTVSS”, the “polyreactivity (PSR sort gate)” value was “high polyreactivity”.
For “QVQLVESGGGLVQAGGSLRLSCAASGFIFSWYAMGWYRQAPGKERELVAAISRSGTRTYYADSVKGRFTISRDNAKNTVYLQMNSLKPEDTAVYYCAAAAKSWLFDYWGQGTQVTVSS”, the “polyreactivity (PSR sort gate)” value was “high polyreactivity”.
For “QVQLVESGGGLVQAGGSLRLSCAASGFIFSYNAMGWYRQAPGKERELVAAISARGGSTYYADSVKGRFTISRDNAKNTVYLQMNSLKPEDTAVYYCNRKQAGHAQGYDYWGQGTQVTVSS”, the “polyreactivity (PSR sort gate)” value was “high polyreactivity”.
In the case of “QVQLVESGGGLVQAGGSLRLSCAASGFIFSYYAMGWYRQAPGKERELVAAINWSGGSTYYADSVKGRFTISRDNAKNTVFLQMNSLKPEDTAVYYCAAYSSWHPYDYWGQGTQVTVSS”, the “polyreactivity (PSR sort gate)” value is reported as “high polyreactivity”.
With “QVQLVESGGGLVQAGGSLRLSCAASGFIFSYYAMGWYRQAPGKERELVAAISRNGGRTYYADSVKGRFTISRDNAKNTVYLQMNSLKPEDTAVYYCATGKIREDDYWGQGTQVTVSS” the “polyreactivity (PSR sort gate)” value was “high polyreactivity”.
With “QVQLVESGGGLVQAGGSLRLSCAASGFIFSYYAMGWYRQAPGKERELVAAISSSGSRTYYADSVKGRFTISRDNAKNTVYLQMNSLKPEDTAVYYCAARGAAKYGYWGQGTQVTVSS” the “polyreactivity (PSR sort gate)” value was “high polyreactivity”.
With “QVQLVESGGGLVQAGGSLRLSCAASGFIFSYYAMGWYRQAPGKERELVAAITQSGGGTYYADSVKGRFTISRDNAKNTVYLQMNSLKPEDTAVYYCAKSRRVYSREGWFHYRAYGYWGQGTQVTVSS” the “polyreactivity (PSR sort gate)” value was “high polyreactivity”.
In the case of “QVQLVESGGGLVQAGGSLRLSCAASGFIFSYYTMGWYRQAPGKERELVAAISRRGGSTYYADSVQGRFTISRDNAKNTVYLQRNSLKPEDTAVYYCAAPRDWDAGDYWGQGTQVTVSS”, the “polyreactivity (PSR sort gate)” value is reported as “high polyreactivity”.
For “QVQLVESGGGLVQAGGSLRLSCAASGFIFTDYAMAWYRQAPGKERELVAAISYGGRTYYADSVKGRFTISRDNAKNTVYLQMNSLKPEDTAVYYCAAEKWDRYSSWSDYWGQGTQVTVSS”, the “polyreactivity (PSR sort gate)” value was “high polyreactivity”.
In the case of “QVQLVESGGGLVQAGGSLRLSCAASGFIFTDYAMGWYRQAPGKERELVAAISSGGRTYYAVSVKGRFTISRDNAKNTVYIQMNSLKPEDTAVYYCARGGRAEGWGQGTQVTVSS”, the “polyreactivity (PSR sort gate)” value is reported as “high polyreactivity”.
For “QVQLVESGGGLVQAGGSLRLSCAASGFIFTGNAMGWYRQAPGKERELLAAISSSGTRTYYADSVKGRFTISRDNASNTVYLQMNSLKPEDTAVYYCNKLYLVWNFYSGYDYWGQGTQVTVSS”, the “polyreactivity (PSR sort gate)” value was “high polyreactivity”.
